Test results: patent publication US20060222645A1 (LEXICON PHARMACEUTICALS, published 2006)

T1: His-SUMO-gs1 (mouse, UniProt Q6TMA8 24-73 (rat entry))
T1 construct: Translated in vitro (RTS E. coli); also called gs-1 fragment of mANGPTL4
T1 chain: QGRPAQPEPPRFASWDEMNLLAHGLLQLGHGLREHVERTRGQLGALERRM

T2: N-mANGPTL4 (mouse)
T2 construct: E. coli construct; also called portion of the amino terminal domain of mouse ANGPTL4
T2 chain: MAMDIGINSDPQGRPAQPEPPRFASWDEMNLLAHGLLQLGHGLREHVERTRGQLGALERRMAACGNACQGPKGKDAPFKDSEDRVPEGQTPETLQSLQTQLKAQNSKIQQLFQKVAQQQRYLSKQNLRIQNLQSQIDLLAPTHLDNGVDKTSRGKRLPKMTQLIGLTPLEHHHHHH

T3: N-hANGPTL4 (human)
T3 construct: E. coli construct
T3 chain: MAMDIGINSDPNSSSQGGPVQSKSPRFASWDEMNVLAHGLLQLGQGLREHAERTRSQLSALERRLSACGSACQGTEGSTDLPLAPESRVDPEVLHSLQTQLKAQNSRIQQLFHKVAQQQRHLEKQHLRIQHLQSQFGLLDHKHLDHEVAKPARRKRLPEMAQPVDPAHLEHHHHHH

T4: His-SUMO-gs2 (mouse, UniProt Q9Z1P8 49-98)
T4 construct: Translated in vitro (RTS E. coli); also called gs-2 fragment of mANGPTL4
T4 chain: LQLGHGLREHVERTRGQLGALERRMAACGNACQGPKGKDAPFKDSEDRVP

T5: His-SUMO-gs3 (mouse, UniProt Q9Z1P8 74-123)
T5 construct: Translated in vitro (RTS E. coli); also called gs-3 fragment of mANGPTL4
T5 chain: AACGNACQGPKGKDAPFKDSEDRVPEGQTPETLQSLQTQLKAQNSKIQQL

T6: His-SUMO-gs4 (mouse, UniProt Q9Z1P8 99-151)
T6 construct: Translated in vitro (RTS E. coli); also called gs4 fragment of mANGPTL4
T6 sequence: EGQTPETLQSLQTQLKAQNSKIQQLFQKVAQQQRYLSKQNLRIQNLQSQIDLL

T7: His-SUMO-gs5 (mouse, UniProt Q9Z1P8 124-180)
T7 construct: Translated in vitro (RTS E. coli); also called gs5 fragment of mANGPTL4
T7 sequence: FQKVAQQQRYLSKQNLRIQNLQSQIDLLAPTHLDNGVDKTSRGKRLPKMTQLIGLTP

T8: bovine LPL (bovine, UniProt P11151 29-478)
T8 sequence (looked up): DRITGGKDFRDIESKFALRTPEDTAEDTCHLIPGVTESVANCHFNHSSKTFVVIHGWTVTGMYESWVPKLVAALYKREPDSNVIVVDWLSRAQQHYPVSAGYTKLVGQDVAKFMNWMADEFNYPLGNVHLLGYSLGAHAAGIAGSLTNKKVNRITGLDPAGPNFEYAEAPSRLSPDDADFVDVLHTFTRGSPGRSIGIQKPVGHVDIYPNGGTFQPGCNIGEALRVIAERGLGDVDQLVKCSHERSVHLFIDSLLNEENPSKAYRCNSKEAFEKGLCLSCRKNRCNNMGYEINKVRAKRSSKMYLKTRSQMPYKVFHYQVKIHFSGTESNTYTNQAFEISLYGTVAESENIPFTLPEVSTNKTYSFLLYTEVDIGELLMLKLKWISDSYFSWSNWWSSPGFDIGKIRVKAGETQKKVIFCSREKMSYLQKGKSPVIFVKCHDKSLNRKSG

T9: full-length human ANGPTL4 (human, UniProt Q9BY76 26-406)
T9 construct: also called hANGPTL4
T9 sequence: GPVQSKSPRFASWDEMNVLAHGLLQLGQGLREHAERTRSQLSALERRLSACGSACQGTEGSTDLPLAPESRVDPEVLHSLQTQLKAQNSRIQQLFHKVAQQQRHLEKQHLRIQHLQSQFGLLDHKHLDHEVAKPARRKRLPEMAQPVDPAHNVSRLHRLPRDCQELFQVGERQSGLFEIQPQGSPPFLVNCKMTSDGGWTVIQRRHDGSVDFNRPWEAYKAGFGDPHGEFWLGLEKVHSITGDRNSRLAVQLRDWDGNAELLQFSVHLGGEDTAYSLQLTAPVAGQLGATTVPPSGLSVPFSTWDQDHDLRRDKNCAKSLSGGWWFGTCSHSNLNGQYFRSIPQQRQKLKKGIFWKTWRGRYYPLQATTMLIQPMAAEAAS


Experiments:
[1] = target: T1, His-SUMO-gs1; experiment: Western blot of in vitro translated fragments
Procedure: (§1) The in vitro translated protein fragments were separated on four SDS-PAGE gels, along with N-mANGPTL4, and transferred to four nitrocellulose blots. The blots were then blocked for 1 to 2 hours with TBS containing 5% nonfat dried milk (TBS-NFDM). After blocking, the blots were rinsed with TBS containing 0.5% Tween-20 (TBS-Tween) four times for five minutes each rinse. The blots were then incubated in TBS-NFDM containing tester antibody (14D12, 15F2, 90B4, or anti-His) overnight at 4° C. The blots were rinsed with TBS-Tween four times for five minutes each rinse and then incubated in TBS-NFDM containing a 1:6000 dilution of HRP-coupled goat anti-mouse antibody (Southern Biotechnology Associates) for 1 hour. The blots were rinsed with TBS-Tween four times for five minutes each rinse and then developed using SuperSignal West Pico Chemiluminescent Substrate (Pierce Biotechnology) as directed by the manufacturer. Alternatively, blots can be developed using the Western Breeze™ Immunodetection Kit (Invitrogen).
(§2) Antibody 14D12 bound only to N-mANGPTL4 in that experiment. […] That result may be due to the fact that 14D12 is a weaker binder than 15F2 and 90B4. See, e.g., Example S and FIG. 33. Antibody 15F2 bound His-SUMO-gs1. […] Antibody 90B4 bound to His-SUMO-gs2 and His-SUMO-gs4.

[2] = target: T2, N-mANGPTL4; experiment: ELISA, coated antigen 0.25 ug/ml, antibody 0 to 10 ug/ml
Procedure: (§3) Antibodies were screened for binding to mouse ANGPTL4 using ELISA. Ninety-six well Nunc Maxi-Sorp ImmunoPlates™ (Nunc #446612, Roskilde, Denmark) were coated by adding 50 μl per well of a 2.5 μg/ml solution of ANGPTL4 in coating buffer (BupH™ Carbonate-Bicarbonate Buffer, Pierce #28382, Rockford, Ill.) overnight at 4° C. Coating buffer was removed and the plate was blocked by adding 250 μl per well of blocking buffer (1% Blocker™ BSA, Pierce #37525, in PBS) for two hours at room temperature. 50 μl of hybridoma supernatant (undiluted or diluted in blocking buffer) or isolated anti-ANGPTL4 antibody (undiluted or diluted in blocking buffer) were added to the wells and incubated for at least one hour at room temperature. Wells were washed four times with PBS/Tween 20. 100 μl of diluted (1:5,000 to 1:10,000) HRP-conjugated goat anti-mouse IgG (Pierce #31446) were added to the wells and incubated for one hour at 37° C. Wells were washed six times with PBS/Tween 20. Anti-ANGPTL4 antibody was detected by adding 50 μl of TMB (tetramethyl benzidine) solution (ImmunoPure® TMB Substrate Kit, Pierce #34021) to the wells for 5 to 10 minutes. Plates were read spectrophotometrically at 450 nm using a microplate reader (Molecular Devices, Sunnyvale, Calif.).
(§4) The binding affinity of antibodies 90B4, 15F2, and 14D12 were determined for each of N-mANGPTL4 and N-hANGPTL4 by ELISA. N-hANGPTL4 was expressed and purified from bacteria as described above for N-mANGPTL4 in Example Q. A polynucleotide sequence encoding amino acids 24 to 175 of human ANGPTL4 was cloned into expression vector pET22b(+), which encodes an N-terminal pelB leader sequence and a C-terminal His tag. Following translation of the protein and removal of all but 11 amino acids of the pelB sequence, N-hANGPTL4 has the sequence shown in SEQ ID NO: 11. That sequence contains 11 amino acids from the pelB sequence, followed by amino acids 24 to 175 of human ANGPTL4 (underlined in Table 6), followed by a 2 amino acid linker and the His tag. ELISAs were performed as discussed above in Example K, except the plates were coated with 50 μl of 0.25 μg/ml of protein (N-mANGPTL4 or N-hANGPTL4) per well. Binding was measured at 0 μg/ml, 0.08 μg/ml, 0.4 μg/ml, 2 μg/ml, and 10 μg/ml antibody.

[3] = target: T3, N-hANGPTL4; experiment: as above
Procedure: as §3, §4

[4] = target: T4, His-SUMO-gs2; experiment: Western blot of in vitro translated fragments
Procedure: as §1, §2

[5] = target: T5, His-SUMO-gs3; experiment: Western blot of in vitro translated fragments
Procedure: as §1, §2

[6] = target: T6, His-SUMO-gs4; experiment: Western blot of in vitro translated fragments
Procedure: as §1, §2

[7] = target: T7, His-SUMO-gs5; experiment: Western blot of in vitro translated fragments
Procedure: as §1, §2

[8] = target: T8, bovine LPL; experiment: cell-based or functional assay
[9] = target: T9, full-length human ANGPTL4; experiment: hybridoma screening ELISA, coated antigen 0.25 ug/ml

Binder | binding result [1] | binding result [2] | binding result [3] | binding result [4] | binding result [5] | binding result [6] | binding result [7] | IC50 (concentration required for 50% inhibition) of LPL activity, release of 3H-oleic acid [8] [nM] | binding result [9]
monoclonal antibody 15F2 (antibody, V domains shown) VH: EVKLVESGGGLVKPGGSLKLSCAASGFAFSRYDMSWVRQTPEKRLEWVATISTDGSYTYYPDSVKGRFTISRDNARNTLYLQMGSLRSEDTALYFCVRHEQSTIVPHYPLDYWGQGTSVTVSS VL: EIQMTQSPSSMSASLGDRITITCQATQDIVKNLNWYQQKPGKPPSFLIHYATELAEGVPSRFSGSGSGSDYSLTISNLESEDFADYYCLQSYDFPYTFGGGTKLEINR | binds | binds | binds |  |  |  |  |  | 
monoclonal antibody 14D12 (antibody, V domains shown) VH: EVKLVESGGGLVKPGGSLKLSCAASGFAFSRYDMSWVRQTPEKRLEWVATISTGGSYTYYPDSVKGRFTISRDNARNTLYLQMGSLRSEDTALYFCVRHEQSTVVPHYPLDYWGQGTSVTVSS VL: DIVMTQSPATLSVTPGDRVSLSCRASQSIGDYLHWYQQKSHESPRLLIKYASQSISGIPSRFSGSGSGSDFTLSIDSVEPEDVGVYYCQNGHSFPFTFGSGTKLEIKR | no binding | binds | binds | no binding | no binding | no binding | no binding |  | 
full-length mouse ANGPTL4 (ligand) QGRPAQPEPPRFASWDEMNLLAHGLLQLGHGLREHVERTRGQLGALERRMAACGNACQGPKGKDAPFKDSEDRVPEGQTPETLQSLQTQLKAQNSKIQQLFQKVAQQQRYLSKQNLRIQNLQSQIDLLAPTHLDNGVDKTSRGKKLSKMTQLIGLTSNATHLHRPARDCQELFQEGERHSGLFQIQPLGSPPFLVNCEMTSDGGWTVIQRRLNGSVDFNQSWEAYKDGFGDPQGEFWLGLEKMHSITGDRGSQLAVQLQDWDGNAKLLQFPIHLGGEDTAYSLQLTEPTANELGATNVSPNGLSLPFSTWDQDHDLRGDLNCAKSLSGGWWFGTCSHSNLNGQYFHSIPRQRQERKKGIFWKTWKGRYYPLQATTLLIQPMEATAAS |  |  |  |  |  |  |  | ~25 | 
monoclonal antibody 90B4 (antibody, V domains shown) VH: EVQLQQSGPELMKPGASVKMSCRTSGYTFTDYSIHWVKQSHGKRLEWIGYINPYNGDTYCDQNFKGKATLTFNKASSTAYMEIPRLTSDDSAVYYCTRWKTIQAPFAYWGQGTLVTVSA VL: EIQMTQSPSSMSASLGDRITITCQATQDIVKNLNWYQQKPGKPPSFLIHYATELAEGVPSRFSGSGSGSDYSLTISNLESEDFADYYCLQSYDFPYTFGGGTKLEIN |  | binds | binds | binds |  | binds |  |  | binds
